pKd: −log10 of the molar value.
Biological target: mouse monoclonal PSA antibody
Assay: SPR, BIAcore 3000, antibody immobilised on CM5 chip

pKd	Substance
7.74	PSA-GOx complex (from UniProt P07288 25-261; P13006 23-605)
9.15	Prostate specific antigen (PSA) (from UniProt P07288 25-261) (enzyme)
